Patent US20250197490A1 (HBM ALPHA THERAPEUTICS, published 2025)
Changes are numbered by the printed parent chain.

Key:
[1] = molecular target: T1, human UCN1 peptide, biotinylated (human, UniProt P55089 83-122, biotin at N- or C-terminus); assay: ELISA, hUCN1 (NT biotin)
T1 construct: also called hUCN1 (NT Biotin); hUCN1 (CT Biotin)
T1 peptide (looked up): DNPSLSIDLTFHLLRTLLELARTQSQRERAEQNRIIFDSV
Protocol: (§1) Streptavidin (Thermo, Cat: 21125) was diluted in PBS to a concentration of 2 μg/ml. 100 μl of diluted streptavidin was added per well to ELISA microplates, and the plates were incubated overnight at 4° C. […] Subsequently, plates were washed and incubated with HRP-conjugated goat anti-human IgG (H+L) antibody (Jackson, Cat: 109-035-088) at 37° C. for 1 hour. 100 μL of 3,3′,5,5′-tetramethylbenzidine (TMB) substrate (Biopanda, Cat: TMB-S-003) was added, and the plates were incubated at room temperature for 15 minutes. 100 μL of ELISA stopping solution (Solarbio, Cat #: C1058) was added to terminate the reaction, and the optical density at 450 nm (OD450 nm) was determined by an ELISA plate reader (Molecular Devices, Spectra max 384 plus).

[2] = molecular target: T2, CRH (Central Region, CT Biotin) (C-terminal K-Biotin); assay: ELISA, CRH central region peptide (CT biotin)
T2 construct: also called Central CRH
T2 peptide: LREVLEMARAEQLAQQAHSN
Protocol: as §1

[3] = molecular target: T3, CRH (Central Region, NT Biotin) (N-terminal Biotin-K; C-terminal NH2); assay: ELISA, CRH central region peptide (NT biotin)
T3 construct: also called Central CRH
T3 peptide: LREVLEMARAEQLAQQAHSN
Protocol: as §1

[4] = molecular target: T4, human UCN3 peptide, biotinylated (human, UniProt Q969E3 120-157, biotin at N- or C-terminus); assay: ELISA, hUCN3 (NT biotin) and (CT biotin)
T4 construct: also called hUCN3 (NT Biotin); hUCN3 (CT Biotin)
T4 peptide (looked up): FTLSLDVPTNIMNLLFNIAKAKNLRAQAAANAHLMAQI
Protocol: (§2) Streptavidin (Thermo, Cat: 21125) was diluted in PBS with a concentration of 2 μg/mL. 100 μL of diluted streptavidin was added per well to ELISA microplates, and the plates were incubated overnight at 4° C. Plates were blocked with ELISA blocking solution (containing 2% w/v BSA, 0.05% (v/v) Tween-20, pH 7.4 PBS buffer) at 37° C. for 1 hour, and then incubated with either 1 μg/mL hUCN1 (NT Biotin), hUCN1 (CT Biotin), hUCN2 (NT Biotin), hUCN2 (CT Biotin), hUCN3 (NT Biotin), or hUCN3 (CT Biotin) for 1 hour at 37° C. […] Plates were subsequently washed and incubated with HRP-conjugated goat anti-human IgG (H+L) antibody (Jackson, Cat: 109-035-088) at 37° C. for 1 hour. 100 μl of TMB Substrate (Biopanda, Cat: TMB-S-003) was added, and the plates were incubated at room temperature for 15 minutes. 100 μL of ELISA stopping solution (Solarbio, Cat #: C1058) was then added to terminate the reaction, and the OD450 nm was determined by an ELISA plate reader (Molecular Devices, Spectra max 384 plus).

[5] = molecular target: T5, N-Terminal CRH peptide (N-terminal region plus central region, CT biotin) (human and mouse, C-terminal K-Biotin); assay: ELISA, N-Ter-CRH (CT-biotin) on streptavidin
T5 construct: also called N-Ter-CRH
T5 peptide: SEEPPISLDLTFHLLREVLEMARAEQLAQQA
Protocol: as §1

[6] = molecular target: T6, CRH (C-Terminal Region, NT Biotin) (N-terminal Biotin-K; C-terminal NH2); assay: ELISA, CRH C-terminal region peptide (NT biotin)
T6 construct: central region plus C-terminal region of CRH; also called C-Terminal CRH; C-Ter-CRH
T6 peptide: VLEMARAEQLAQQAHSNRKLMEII
Protocol: as §1

[7] = molecular target: T7, human UCN2 peptide, biotinylated (human, UniProt Q96RP3 72-109, limits assumed, biotin at N- or C-terminus); assay: ELISA, hUCN2 (NT biotin) and (CT biotin)
T7 construct: also called hUCN2 (NT Biotin); hUCN2 (CT Biotin)
T7 peptide (looked up): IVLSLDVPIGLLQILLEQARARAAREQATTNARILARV
Protocol: as §2

[8] = molecular target: T8, biotinylated CRH (human and mouse, UniProt P01143 145-185 (rat entry), not fully specified; biotin; which end is not stated for the result (NT-biotin and CT-biotin forms were used)); assay: ELISA, CRH (CT biotin)
T8 construct: also called biotin-CRH; CRH (NT biotin)
T8 peptide: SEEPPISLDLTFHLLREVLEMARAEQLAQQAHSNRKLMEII
Protocol: as §1

[9] = molecular target: T1, human UCN1 peptide, biotinylated; assay: ELISA, hUCN1 (CT biotin)
Protocol: as §1

[10] = molecular target: T9, corticotropin-releasing hormone (CRH) peptide (human and mouse, UniProt P01143 145-185 (rat entry), not fully specified); assay: cell-based or functional assay
T9 peptide: T8 peptide

[11] = molecular target: T8, biotinylated CRH; assay: ELISA, CRH (NT biotin)
Protocol: as §1

[12] = molecular target: T1, human UCN1 peptide, biotinylated; assay: ELISA, hUCN1 (NT biotin) and (CT biotin), mAb at 100 and 10 nM
Protocol: as §2

B1: PR302309-11 (antibody, human IgG1, kappa, V domains shown)
VH: QIQLVQSGSELKKPGASVKVSCKASGYTFTNYGMNWVRQAPGQGLEWMGWINTYTGEPIYTDDFKGRFVFSLDTSVSTAYLQISSLKAEDTAVYYCSRSTMITTGGVFAYWGQGTLVTVSS
VL: DIVMTQTPLSSPVTLGQPASISCRSSQTIVHSDGNTYLEWLQQRPGQPPRLLIYKVSNRFSGVPDRFSGSGAGTDFTLKISRVEAEDVGVYYCFQGSHVPWTFGGGTKVEIKR
For B1, the “EC50 (read off the curve)” value [1] was about 0.07 nM, the binding result [2] was “no binding (tested: 100 nM)” and the binding result [3] was “no binding (tested: 100 nM)”. The binding result [4] was “no binding (tested: 100 nM)”, the EC50 [5] was 0.028 nM and the binding result [6] was “no binding (tested: 100 nM)”. The binding result [7] was “no binding (tested: 100 nM)”, the “EC50 (read off the curve)” value [8] was about 0.03 nM and the “EC50 (read off the curve)” value [9] was about 0.4 nM. For the same binder, the “hCRHR1-Luc 0.5 nM CRH IC50” value [10] was 2.12 nM and the “EC50 (read off the curve)” value [11] was about 0.03 nM.

B2: PR302309-18 (antibody, human IgG1, kappa, V domains shown)
VH: QVQLVQSGAEVKKPGASVKVSCKASGYTFTNYGMNWVRQAPGQRLEWMGWINTYTGEPIYTDDFKGRVTITRDTSASTAYMELSSLRSEDTAVYYCARSTMITTGGVFAYWGQGTLVTVSS
VL: B1 VL with I2V, T7S, S11L, L41Y, P48S, A72S, V88L
For B2, the “EC50 (read off the curve)” value [1] was about 0.1 nM, the binding result [2] was “no binding (tested: 100 nM)” and the binding result [3] was “no binding (tested: 100 nM)”. For the same binder, the binding result [4] was “no binding (tested: 100 nM)”, the EC50 [5] was 0.028 nM and the binding result [6] was “no binding (tested: 100 nM)”. For the same binder, the binding result [7] was “no binding (tested: 100 nM)”, the “EC50 (read off the curve)” value [8] was about 0.03 nM and the “hCRHR1-Luc 0.5 nM CRH IC50” value [10] was 1.73 nM. For the same binder, the “EC50 (read off the curve)” value [11] was about 0.03 nM.

B3: PR302341-34 (antibody, human IgG1, kappa, V domains shown)
VH: QVQLVQSGAEVKKPGASVKVSCKASGYTFTDYFMKWVRQAPGQGLEWMGVINPNQGDIFYNQKFKGRVTMTVDKSISTAYMELSRLRSDDTAVYYCARGTDRALFAYWGQGTLVTVSS
VL: DVVMTQSPLSLPVTLGQPASISCRSGQSIVHSDANTYLEWYQQRPGQSPRLLIYKVSNRFSGVPDRFSGSGSGTDFTLKISRVEAEDLGVYYCFQGSHIPWTFGGGTKVEIKR
In the case of B3, the “EC50 (read off the curve)” value [1] is reported as about 0.02 nM, the binding result [2] is reported as “no binding (tested: 100 nM)” and the binding result [3] is reported as “no binding (tested: 100 nM)”. The binding result [6] was “no binding (tested: 100 nM)”, the binding result [7] was “no binding (tested: 100 nM)” and the “EC50 (read off the curve)” value [8] was about 0.03 nM. For the same binder, the “EC50 (read off the curve)” value [9] was about 0.03 nM and the “EC50 (read off the curve)” value [11] was about 0.03 nM.

B4: PR302341-28 (antibody, human IgG1, kappa, V domains shown)
VH: B3 VH
VL: B3 VL with A34G
B4: binds [12]; no binding (tested: 100 nM) [7].

B5: PR302341-48 (antibody, human IgG1, kappa, V domains shown)
VH: B3 VH with I76T, R85S, D89E
VL: B3 VL with S7T, L11S, S48P, S72A
B5: binds [12]; no binding (tested: 100 nM) [7].

B6: PR302341-55 (antibody, human IgG1, kappa, V domains shown)
VH: B3 VH with G44R, Q55N, G56A, M70I, V72R, K74T, I76A, R85S, D89E
VL: B3 VL with A34G
B6: binds [12]; no binding (tested: 100 nM) [7].

B7: PR302341-60 (antibody, human IgG1, kappa, V domains shown)
VH: B3 VH with G44R, M70I, V72R, K74T, I76A, R85S, D89E
VL: B3 VL
B7: binds [12]; no binding (tested: 100 nM) [7].
